Test results published in patent US20140315799A1 (J DAVID GLADSTONE INSTITUTES, published 2014).

Target: T1, endogenous p75^NTR in 3T3L1 adipocytes (mouse, UniProt Q9Z0W1 32-427)
T1 construct: whole, on cells
T1 sequence (looked up): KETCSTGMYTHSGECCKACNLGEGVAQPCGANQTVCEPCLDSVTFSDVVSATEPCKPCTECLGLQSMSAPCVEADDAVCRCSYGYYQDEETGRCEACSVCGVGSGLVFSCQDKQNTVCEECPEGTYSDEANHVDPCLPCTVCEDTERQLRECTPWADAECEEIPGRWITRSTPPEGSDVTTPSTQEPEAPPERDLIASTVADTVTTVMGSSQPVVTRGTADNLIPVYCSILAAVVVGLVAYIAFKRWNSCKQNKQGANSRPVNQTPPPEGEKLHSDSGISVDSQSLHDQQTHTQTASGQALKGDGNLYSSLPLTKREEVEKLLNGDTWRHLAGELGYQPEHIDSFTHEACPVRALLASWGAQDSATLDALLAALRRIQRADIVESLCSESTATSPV
Assay: endogenous co-IP from 3T3L1 adipocytes (anti-p75NTR IP, anti-Rab31 blot)
Description: Briefly, cell lysates were prepared in 1% Nonidet P-40 (NP-40; non-ionic detergent), 200 mM NaCl, 1 mM EDTA, and 20 mM Tris-HCl, pH 8.0. Immunoprecipitations (IPs) were performed with an anti-p75^NTR antibody and immunoblot with anti-Rab31 and anti-p75^NTR.
(C) Immunoprecipitation of p75^NTR with Rab31 and Rab5 in 3T3L1 adipocytes stimulated with insulin. Lysates were immunoprecipitated with anti-p75^NTR antibody, and western blots were developed with anti-Rab31 and anti-Rab5 antibodies.

binding result: binds
B1: endogenous Rab31 in 3T3L1 adipocytes (enzyme, UniProt Q921E2 1-195, looked up)
chain: MMAIRELKVCLLGDTGVGKSSIVCRFVQDHFDHNISPTIGASFMTKTVPCGNELHKFLIWDTAGQERFHSLAPMYYRGSAAAVIVYDITKQDSFHTLKKWVKELKEHGPENIVMAIAGNKCDLSDIREVPLKDAKEYAESIGAIVVETSAKNAINIEELFQGISRQIPPLGPQENGNSGGIKLGNQSLQASRRCC
